Measured values published in the RNAGym collection of RNA variant scans (doi:10.1093/molbev/msab373).

B1: Azoarcus group I ribozyme (parent)
chain: GUGCCUUGCGCCGGGAAACCACGCAAGGGAUGGUGUCAAAUUCGGCGAAACCUAAGCGCCCGCCCGGGCGUAUGGCAACGCCGAGCCAAGCUUCGGCGCCUGCGCCGAUGAAGGUGUAGAGACUAGACGGCACCCACCUAAGGCAAACGCUAUGGUGAAGGCAUAGUCCAGGGAGUGGCGAAAGUCACACAAACCGG

Variants of: B1
Experiment: reverse-splicing fitness (ratio to wild type); higher = more active; in vitro selection; Mg2+ level not given
Procedure, shortened: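 An in vitro group I ribozyme library with randomized positions was T7-transcribed and gel-purified. In triplicate, 10 pmol RNA in EPPS pH 7.5 was reacted with 50 pmoles of a 30-nt RNA substrate for 1 h at 37 °C across several added MgCl2 levels (1–48 mM), then stopped with EDTA. Products were reverse transcribed from a substrate-complementary primer, PCR-amplified and sequenced (HiSeq 4000). Fitness is a variant's read proportion after selection over that before, normalised to wild type.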

Compared with C82U A111G A145C C150G C169U, C82U A111G A145C C150G C169U U176A is lower in reverse-splicing fitness: 0.00804 for the first, 0.00744 for the second.

First: C82U A111G A145C C150G C169U U176C
Second: C82U A111G A145C C150G C169U U176G
The reverse-splicing fitness of the first is higher: 0.00873 for the first, 0.00478 for the second.

Compared with C82U A111G A145C C150G U176A, C82U A111G A145C C150G U176C is higher in reverse-splicing fitness: 0.0112 for the first, 0.0249 for the second.

Compared with C82U A111G A145C C150G U176G, C82U A111G A145C C150U is higher in reverse-splicing fitness: 0.00329 for the first, 0.091 for the second.

First: C82U A111G A145C C150U C169A
Second: C82U A111G A145C C150U C169A U176A
The reverse-splicing fitness of the first is lower: 0.00735 for the first, 0.00923 for the second.

Going from C82U A111G A145C C150U C169A U176C to C82U A111G A145C C150U C169A U176G, the reverse-splicing fitness falls from 0.00548 to 0.00526.

First: C82U A111G A145C C150U C169G
Second: C82U A111G A145C C150U C169G U176A
The reverse-splicing fitness of the first is lower: 0.00755 for the first, 0.0186 for the second.

First: C82U A111G A145C C150U C169G U176C
Second: C82U A111G A145C C150U C169G U176G
The reverse-splicing fitness of the first is higher: 0.00977 for the first, 0.00565 for the second.

Compared with C82U A111G A145C C150U C169U, C82U A111G A145C C150U C169U U176A is higher in reverse-splicing fitness: 0.00947 for the first, 0.0119 for the second.

Going from C82U A111G A145C C150U C169U U176C to C82U A111G A145C C150U C169U U176G, the reverse-splicing fitness falls from 0.00834 to 0.00493.

Going from C82U A111G A145C C150U U176A to C82U A111G A145C C150U U176C, the reverse-splicing fitness rises from 0.0454 to 0.0617.

First: C82U A111G A145C C150U U176G
Second: C82U A111G A145C C169A
The reverse-splicing fitness of the first is higher: 0.0185 for the first, 0.00618 for the second.

Compared with C82U A111G A145C C169A U176A, C82U A111G A145C C169A U176C is lower in reverse-splicing fitness: 0.00798 for the first, 0.00406 for the second.

First: C82U A111G A145C C169A U176G
Second: C82U A111G A145C C169G
The reverse-splicing fitness of the first is lower: 0.00408 for the first, 0.0078 for the second.

Going from C82U A111G A145C C169G U176A to C82U A111G A145C C169G U176C, the reverse-splicing fitness falls from 0.0196 to 0.0119.

Going from C82U A111G A145C C169G U176G to C82U A111G A145C C169U, the reverse-splicing fitness rises from 0.00461 to 0.00982.

First: C82U A111G A145C C169U U176A
Second: C82U A111G A145C C169U U176C
The reverse-splicing fitness of the first is higher: 0.0108 for the first, 0.00903 for the second.

Compared with C82U A111G A145C C169U U176G, C82U A111G A145C U176A is higher in reverse-splicing fitness: 0.00386 for the first, 0.178 for the second.

Compared with C82U A111G A145C U176C, C82U A111G A145C U176G is lower in reverse-splicing fitness: 0.242 for the first, 0.0614 for the second.

Going from C82U A111G A145G to C82U A111G A145G C150A, the reverse-splicing fitness falls from 0.433 to 0.0568.

Compared with C82U A111G A145G C150A C169A, C82U A111G A145G C150A C169A U176A is higher in reverse-splicing fitness: 0.0102 for the first, 0.0187 for the second.

Going from C82U A111G A145G C150A C169A U176C to C82U A111G A145G C150A C169A U176G, the reverse-splicing fitness falls from 0.0247 to 0.00546.

First: C82U A111G A145G C150A C169G
Second: C82U A111G A145G C150A C169G U176A
The reverse-splicing fitness of the first is lower: 0.0093 for the first, 0.0194 for the second.

Going from C82U A111G A145G C150A C169G U176C to C82U A111G A145G C150A C169G U176G, the reverse-splicing fitness falls from 0.0236 to 0.00543.

First: C82U A111G A145G C150A C169U
Second: C82U A111G A145G C150A C169U U176A
The reverse-splicing fitness of the first is lower: 0.01 for the first, 0.0135 for the second.

Compared with C82U A111G A145G C150A C169U U176C, C82U A111G A145G C150A C169U U176G is lower in reverse-splicing fitness: 0.0151 for the first, 0.00552 for the second.

First: C82U A111G A145G C150A U176A
Second: C82U A111G A145G C150A U176C
The reverse-splicing fitness of the first is lower: 0.0328 for the first, 0.0481 for the second.

First: C82U A111G A145G C150A U176G
Second: C82U A111G A145G C150G
The reverse-splicing fitness of the first is lower: 0.0108 for the first, 0.0407 for the second.

First: C82U A111G A145G C150G C169A
Second: C82U A111G A145G C150G C169A U176A
The reverse-splicing fitness of the first is lower: 0.00883 for the first, 0.012 for the second.

Compared with C82U A111G A145G C150G C169A U176C, C82U A111G A145G C150G C169A U176G is lower in reverse-splicing fitness: 0.0111 for the first, 0.00737 for the second.

First: C82U A111G A145G C150G C169G
Second: C82U A111G A145G C150G C169G U176A
The reverse-splicing fitness of the first is lower: 0.007 for the first, 0.00977 for the second.

Going from C82U A111G A145G C150G C169G U176C to C82U A111G A145G C150G C169G U176G, the reverse-splicing fitness falls from 0.00848 to 0.00507.

First: C82U A111G A145G C150G C169U
Second: C82U A111G A145G C150G C169U U176A
The reverse-splicing fitness of the first is lower: 0.00891 for the first, 0.0101 for the second.

First: C82U A111G A145G C150G C169U U176C
Second: C82U A111G A145G C150G C169U U176G
The reverse-splicing fitness of the first is higher: 0.012 for the first, 0.00654 for the second.

Compared with C82U A111G A145G C150G U176A, C82U A111G A145G C150G U176C is higher in reverse-splicing fitness: 0.00967 for the first, 0.0206 for the second.

Compared with C82U A111G A145G C150G U176G, C82U A111G A145G C150U is higher in reverse-splicing fitness: 0.00618 for the first, 0.334 for the second.

Compared with C82U A111G A145G C150U C169A, C82U A111G A145G C150U C169A U176A is higher in reverse-splicing fitness: 0.00982 for the first, 0.0161 for the second.

First: C82U A111G A145G C150U C169A U176C
Second: C82U A111G A145G C150U C169A U176G
The reverse-splicing fitness of the first is higher: 0.0167 for the first, 0.00534 for the second.

Going from C82U A111G A145G C150U C169G to C82U A111G A145G C150U C169G U176A, the reverse-splicing fitness rises from 0.00979 to 0.0169.

Compared with C82U A111G A145G C150U C169G U176C, C82U A111G A145G C150U C169G U176G is lower in reverse-splicing fitness: 0.0174 for the first, 0.00547 for the second.

First: C82U A111G A145G C150U C169U
Second: C82U A111G A145G C150U C169U U176A
The reverse-splicing fitness of the first is lower: 0.0111 for the first, 0.0132 for the second.

C82U A111G A145G C150U C169U U176C gave a reverse-splicing fitness of 0.0132.
